Consider eight proteins from patent US20160274129.

The target in this data set is T1, α-fructosyl-valyl-histidyl-leucyl-threonyl-proryl-glutamic acid.
T1 chain: VHLTPE

Where a chain is given by its changes, count along the chain named. Numbers in names are those of the source.

B1: CFP-T7-H2 (protein)
chain: MTSNRADTRVIVVGGGGTIGSSTALHLVRSGYAPANITVLDTFEIPSAQSAGHDLNKIMGIALRNKVDLQMSLEARQMWKEDELFQPFFHNTGRMDCEHTPEGIEDLKKLYQALHDAGAGLEKTHAWLDNEDEILSKMPLLQRDQIQGWKAIWSQDGGWLAAAKAINAIGQFLKERGVKFGFGGAGSFKQPLFDDEGTTCIGVETADGTKYYADKVVLAAGAWSPTLVDLEDQCCSKAWVYAHIQLTPEEAAEYKGVPVVYNGEFGFFFEPDEFGVIKVCDEFPGFSRFKEHQPYGAPSPKRISVPRSHAKHPTDTYPDASEVSIKKAIATFLPRFQDKELFNRALCWCTDTADAALLMCEHPKWKNFILATGDSGHSFKILPNVGKYVVELIEGRLPEEMAYQWRWRPGGDALKSRRAAPPKDLADMPGWKHDPKL
In turn, B1 showed a αF6P oxidation activity (crude enzyme; αFVH oxidation activity = 100) (relative (αFVH = 100)) of 0.0735, a αF6P/αFV of 0.000536 and a αF6P/αFVH of 0.000735.

B2: AnFX (protein)
chain: MTPRANTKIIVVGGGGTMGSSTALHLLRAGYTPSNITVLDTCPIPSAQSAGYDLNKIMGIRLRNKPDLQLSLEALDMWKNDPLFKPFFHNVGMIDVSSTEEGIEGLRKKYQSLLDAGIGLEKTNFMLESEDEILAKAPHFTQEQIKGWKGLFCGDGGWLAAAKAINAIGQFLKEQGVKFGFGGAGTFKKPLFADAHEKTCIGVETVDGTKYYADKVVLAAGAWSSTLVDLEEQCVSKAWVFAHIQLTPAEAAAYKNTPVIYDGDYGFFFEPNENGIIKVCDEFPGFTHFKMHQPYGSPAPKPISVPRSHAKHPTDTYPHASEVTIKKAINRFLPRFNDKELFNRAMCWCTDTADANLLVCEHPRWKGFYLATGDSGHSFKLLPNIGKHVVELLEERLESVFKDAWRWRPGSGDALKSRRAAPAKDLADMPGWRNEAKM
Turning to B2, the Specific activity (U/mg), 1 mM αF6P, purified enzyme was found to be 0 U/mg.

B3: AnFX-61D/105K/109L (protein)
chain: B2 chain with R61D, G105K, K109L
B3 had a Specific activity (U/mg), 1 mM αF6P, purified enzyme of 0.106 U/mg.

B4: NvFX (protein)
chain: MTTPRKETTVLIIGGGGTIGSSTALHLLRAGYTPSNITVLDTYPIPSAQSAGNDLNKIMGIRLRNKVDLQLSLEARDMWRNDALFRPFFHNTGRLDCESSAEGVEGLRREYQKLVEAGVGLEETHEWLDSEEAILEKAPLLQREEIEGWKAIWSEEGGWLAAAKAINAIGEELQRQGVRFGFGGAGSFKRPLFADDGTTCIGVETVDGTQYHADKVVLAAGAWSPALVDLEEQCCSKAWVYAHMQLTPEEAAVYKGCPVVYHGDVGFFFEPNENGVIKVCDEFPGFTRFKQHQPYGAPAPKPVSVPRSHAKHPTDTYPDASEESIKRAVSTFLPRFKDKPLFNRALCWCTDTADSALLICEHPRWKNFILATGDSGHSFKLLPIIGKHVVELVEGRLADDLAEAWRWRPGQGDARKSIRAAPAKDLADMPGWKHDQDSESR
As to B4, the Specific activity (U/mg), 1 mM αF6P, purified enzyme amounted to 0 U/mg.

B5: NvFX-62D/106K/110L (protein)
chain: B4 chain with R62D, G106K, E110L
Consider B5, for which the Specific activity (U/mg), 1 mM αF6P, purified enzyme was 0.003 U/mg.

B6: EFP-T5 (protein)
chain: MAHSRASTKVVVVGGGGTIGSSTALHLIRSGYTPSNITVLDVYKTPSLQSAGHDLNKIMGIRLRNGPDLQLSLESLDMWQNDELFKPFFHQVGMIDCSSSKEGIENLRRKYQTLLDAGIGLEKTNVWLESEDEILAKAPNFTREQVKGWKGLFCTDGGWLAAAKAINAIGIFLQDKGVKFGFGDAGTFQQPLFAADGKTCIGLETTDGTKYFADKVVLAAGAWSPTLVDLEDQCVSKAWVFAHIQLTPKEADAYKNVPVVYDGEYGFFFEPDEYGVIKVCDEFPGFSRFKLHQPYGAASPKMISVPRSHAKHPTDTYPDASEVTIRKAIARFLPEFKDKELFNRTMCWCTDTADANLLICEHPKWKNFILATGDSGHSFKLLPNIGKYVVELLEGSLSQEMAGAWRWRPGGDALRSRRGAPAKDLAEMPGWKHDAHL
The protein B6 had a Specific activity (U/mg), 1 mM αF6P, purified enzyme of 0 U/mg.

B7: EFP-T5-62D/63H/106K/110L/113K/355S (protein)
chain: B6 chain with R62D, L63H, N106K, K110L, T113K, A355S
On to B7, for which the Specific activity (U/mg), 1 mM αF6P, purified enzyme came to 1.12 U/mg.

B8: EFP-T5-R62D (protein)
chain: B6 chain with R62D
For the protein B8, the Specific activity (U/mg), 1 mM αF6P, purified enzyme was determined as 0.0043 U/mg.
